Columns and labels:
[1] = target: T1, human cannabinoid receptor 1 (huCB1), full length, expressed on cells (human, UniProt P21554 1-472); assay: cell-based or functional assay
[2] = target: T1, human cannabinoid receptor 1 (huCB1), …; assay: FACS on transiently transfected HEK293T cells
[3] = target: T2, truncated human CB1 (devoid of the 1-98 aa N-term), expressed on cells (human, UniProt P21554 99-472); assay: FACS on transiently transfected HEK293T cells
T2 construct: Transiently expressed on HEK293T cells; also called Truncated hu CB1; N-term truncated human CB1
T2 sequence (P21554 99-472): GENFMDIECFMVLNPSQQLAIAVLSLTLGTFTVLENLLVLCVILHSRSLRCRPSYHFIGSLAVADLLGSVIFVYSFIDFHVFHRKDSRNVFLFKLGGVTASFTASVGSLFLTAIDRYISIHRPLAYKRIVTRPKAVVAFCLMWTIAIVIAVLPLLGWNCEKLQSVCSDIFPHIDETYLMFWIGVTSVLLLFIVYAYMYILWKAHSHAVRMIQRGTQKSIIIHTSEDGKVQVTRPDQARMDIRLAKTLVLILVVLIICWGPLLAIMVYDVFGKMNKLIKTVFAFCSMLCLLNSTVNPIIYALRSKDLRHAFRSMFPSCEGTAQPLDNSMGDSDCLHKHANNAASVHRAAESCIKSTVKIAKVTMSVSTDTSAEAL

[4] = target: T3, human cannabinoid receptor type 2 (CB2), full length, expressed on cells (human, UniProt P34972 1-360); assay: FACS on transiently transfected HEK293T cells
T3 construct: Transiently expressed on HEK293T cells; also called Full length hu CB2; huCB2
T3 sequence (P34972 whole entry): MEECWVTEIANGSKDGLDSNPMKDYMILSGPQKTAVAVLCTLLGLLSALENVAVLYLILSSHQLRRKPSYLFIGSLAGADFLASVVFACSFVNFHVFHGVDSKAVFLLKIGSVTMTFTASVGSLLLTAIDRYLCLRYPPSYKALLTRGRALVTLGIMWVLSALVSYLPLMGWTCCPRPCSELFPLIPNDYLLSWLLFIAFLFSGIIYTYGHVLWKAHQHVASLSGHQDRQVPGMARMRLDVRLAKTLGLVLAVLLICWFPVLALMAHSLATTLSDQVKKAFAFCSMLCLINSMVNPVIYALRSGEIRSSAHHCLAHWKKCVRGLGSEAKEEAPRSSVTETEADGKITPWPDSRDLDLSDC

[5] = target: T4, mouse CB1, full length, expressed on cells (mouse, UniProt P47746 1-473); assay: FACS on transiently transfected HEK293T cells
T4 construct: Transiently expressed on HEK293T cells; also called Full length mu CB1; muCB1
T4 sequence (P47746 whole entry): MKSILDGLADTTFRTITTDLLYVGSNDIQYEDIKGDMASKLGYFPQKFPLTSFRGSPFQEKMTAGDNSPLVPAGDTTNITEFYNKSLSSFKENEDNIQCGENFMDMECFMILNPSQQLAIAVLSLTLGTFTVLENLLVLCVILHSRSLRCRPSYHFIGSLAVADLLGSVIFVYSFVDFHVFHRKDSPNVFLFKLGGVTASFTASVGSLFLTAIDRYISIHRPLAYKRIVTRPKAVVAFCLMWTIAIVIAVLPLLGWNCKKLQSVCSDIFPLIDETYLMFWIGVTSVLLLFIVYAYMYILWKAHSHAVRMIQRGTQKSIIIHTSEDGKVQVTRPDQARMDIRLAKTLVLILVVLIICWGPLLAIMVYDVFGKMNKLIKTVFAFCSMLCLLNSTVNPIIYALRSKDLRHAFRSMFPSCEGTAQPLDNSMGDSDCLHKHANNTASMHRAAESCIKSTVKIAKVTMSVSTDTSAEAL

[6] = target: T5, human cannabinoid receptor type 2 (CB2) (human, UniProt P34972 1-360); assay: FACS on transfected HEK293T cells
T5 construct: also called huCB2; full length hu CB2
T5 sequence (P34972 whole entry): as the sequence (P34972 whole entry) above

[7] = target: T6, mouse CB1 (mouse, UniProt P47746 1-473); assay: FACS on transfected HEK293T cells
T6 construct: also called muCB1; murine CB1
T6 sequence (P47746 whole entry): as the sequence (P47746 whole entry) above

[8] = target: T1, human cannabinoid receptor 1 (huCB1), …; assay: cell-based or functional assay; remark: listed apart in the source
[9] = target: T1, human cannabinoid receptor 1 (huCB1), …; assay: cell-based or functional assay; remark: listed apart in the source
[10] = target: T1, human cannabinoid receptor 1 (huCB1), …; assay: cell-based or functional assay; remark: listed apart in the source
[11] = target: T1, human cannabinoid receptor 1 (huCB1), …; assay: cell-based or functional assay; remark: listed apart in the source
[12] = target: T1, human cannabinoid receptor 1 (huCB1), …; assay: cell-based or functional assay; remark: listed apart in the source
[13] = target: T7, huCB1 nanodisc (CB1-ND) (human, UniProt P21554 99-414); assay: Octet BLI; antibody captured by anti-human Fc, CB1-nanodisc in solution, 1:1 model
T7 construct: The His-tagged CB1 is embedded in a POPC lipid nanodisc with MSP1D1 scaffold protein (molar ratio 480:8:1); also called huCB1-ND; #CB1-008
T7 sequence (P21554 99-414 limits assumed): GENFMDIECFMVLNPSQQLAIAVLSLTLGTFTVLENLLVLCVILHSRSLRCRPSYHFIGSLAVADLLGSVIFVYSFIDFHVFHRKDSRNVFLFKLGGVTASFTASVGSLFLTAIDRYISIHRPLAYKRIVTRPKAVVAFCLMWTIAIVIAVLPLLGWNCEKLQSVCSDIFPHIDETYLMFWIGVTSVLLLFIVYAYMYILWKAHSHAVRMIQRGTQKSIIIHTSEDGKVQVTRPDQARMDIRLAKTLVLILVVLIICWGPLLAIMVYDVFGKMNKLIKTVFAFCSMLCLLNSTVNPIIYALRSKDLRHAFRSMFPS

[14] = target: T5, human cannabinoid receptor type 2 (CB2); assay: fold over mock (Table 14)
[15] = target: T6, mouse CB1; assay: fold over mock (Table 14)
[16] = target: T8, GFP-fused huCB1-SMALP (human CB1 in styrene maleic acid lipoparticles) (human, UniProt P21554 1-472); assay: flow cytometry, yeast-displayed IgG, GFP MFI
T8 construct: Prepared as in Luna V. et al. 2018; also called huCB1-GFP-SMALP; wtCB1-SMALP; not shown: GFP fusion
T8 sequence (P21554 whole entry, the tested form may be a part): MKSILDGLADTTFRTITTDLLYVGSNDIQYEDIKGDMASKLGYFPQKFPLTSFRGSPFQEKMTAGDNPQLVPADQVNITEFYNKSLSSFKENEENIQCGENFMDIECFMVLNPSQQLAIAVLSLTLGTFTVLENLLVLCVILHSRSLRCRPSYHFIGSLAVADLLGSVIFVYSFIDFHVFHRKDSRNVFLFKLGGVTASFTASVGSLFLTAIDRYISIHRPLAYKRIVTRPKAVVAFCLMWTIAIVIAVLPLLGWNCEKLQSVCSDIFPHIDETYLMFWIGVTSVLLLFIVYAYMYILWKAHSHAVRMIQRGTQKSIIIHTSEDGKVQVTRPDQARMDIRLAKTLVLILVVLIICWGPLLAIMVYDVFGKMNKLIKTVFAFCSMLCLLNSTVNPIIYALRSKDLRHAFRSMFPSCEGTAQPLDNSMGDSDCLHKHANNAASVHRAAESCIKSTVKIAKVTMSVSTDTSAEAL

[17] = target: T5, human cannabinoid receptor type 2 (CB2); assay: binding to huCB2, fold over mock (method not described)
[18] = target: T6, mouse CB1; assay: binding to muCB1, fold over mock (method not described)
[19] = target: T9, His-tagged huCB1-ND (human CB1 in nanodisc) (human); assay: flow cytometry, yeast-displayed IgG, binding/display ratio
T9 construct: CB1 construct of Cell 167(3) (2016) 750-762 expressed in Sf9 cells; POPC:MSP1D1:CB1 480:8:1; also called CB1-nanodisc; huCB1-Nanodisc; not shown: histidine purification tag
T9 sequence (P21554 99-414): as the sequence (P21554 99-414 limits assumed) above

[20] = target: T9, His-tagged huCB1-ND (human CB1 in …); assay: flow cytometry, yeast-displayed IgG, huCB1-ND over empty-ND
[21] = target: T9, His-tagged huCB1-ND (human CB1 in …); assay: flow cytometry on IgG-displaying yeast, 0.2 nM His-tagged huCB1 nanodisc, APC anti-His (y) vs PE anti-huFc display (x)
[22] = target: T8, GFP-fused huCB1-SMALP (human CB1 in …); assay: flow cytometry on IgG-displaying yeast, 100 nM GFP-fused huCB1-SMALP, GFP in BB515-A (y) vs AlexaFluor647 anti-huFab display in APC-A (x)

T1 sequence (P21554 whole entry): as the sequence (P21554 whole entry, the tested form may be a part) above

Row | Binder | IC50, nM (TR-FRET cAMP assay, CP55,940 and Forskolin) [1] [nM] | MFI ratio (target- vs mock-transfected cells) [2] [ratio] | MFI ratio (target- vs mock-transfected cells) [3] [ratio] | MFI ratio (target- vs mock-transfected cells) [4] [ratio] | MFI ratio (target- vs mock-transfected cells) [5] [ratio] | binding result [6] | binding result [7] | % of events in the upper right quadrant (display-positive, binding-positive) [21] [%] | % of events in the upper right quadrant (display-positive, binding-positive) [22] [%] | further results
1 | LIBC560340-1 (antibody, V domains shown, Fully human antibody from the new XenoMouse campaign) VH: QVQLQESGPGLVKPSQTLSLICIVSGGSIRRGGDYWNWIRQHPGKGLEWIGHIYYSGSKNYNPSLKSRVTISVDTSKNQFSLKLSSVTAADTAVYYCARGYDSSGYSYYYYGMDVWGQGTTVTVSS VL: DIVMTQSPLSLPVTPGEPASISCRSSQSLLYSNGHNFLDWYLQKPGQSPQLLIYLGSNRASGVPDRFSGSGSGTDFTLKISRVEAEDVGVYYCMQALQTPRTFGGGTKVEIKR | 10.2 | 578 | 705 | 1 | 1 |  |  |  |  | 
2 | LIBC560340-1 (antibody, V domains shown) VH: QVQLQESGPGLVKPSQTLSLICIVSGGSIRRGGDYWNWIRQHPGKGLEWIGHIYYSGSKNYNPSLKSRVTISVDTSKNQFSLKLSSVTAADTAVYYCARGYDSSGYSYYYYGMDVWGQGTTVTVSS VL: DIVMTQSPLSLPVTPGEPASISCRSSQSLLYSNGHNFLDWYLQKPGQSPQLLIYLGSNRASGVPDRFSGSGSGTDFTLKISRVEAEDVGVYYCMQALQTPRTFGGGTKVEIKR |  |  |  |  |  | no binding | no binding |  |  | 
3 | LIBC560657-1 (antibody, V domains shown, Fully human antibody from the new XenoMouse campaign) VH: QVQLRESGPGLVKPSQTLSLICIVSGGSIRRGGDYWNWIRQHPGKGLEWIGHIYYTGTKYYNPSLKSRVTISVDTSKNQFSLKLSSVTAADTAVYYCARGYDSSGYSYYYYGMDVWGQGTTVTVSS VL: DIVMTQSPLSLPVTPGEPASISCRSSQSLLYSNGHNYLDWYLQKPGQSPQLLIYLGSNRAPGVPDRFSGSGSGTDFTLKISRVEAEDVGVYFCMQALQTPRTFGGGTKVEIKR | 7.5 | 440 | 444 | 1 | 1 |  |  |  |  | 
4 | LIBC560657-1 (antibody, V domains shown) VH: QVQLRESGPGLVKPSQTLSLICIVSGGSIRRGGDYWNWIRQHPGKGLEWIGHIYYTGTKYYNPSLKSRVTISVDTSKNQFSLKLSSVTAADTAVYYCARGYDSSGYSYYYYGMDVWGQGTTVTVSS VL: DIVMTQSPLSLPVTPGEPASISCRSSQSLLYSNGHNYLDWYLQKPGQSPQLLIYLGSNRAPGVPDRFSGSGSGTDFTLKISRVEAEDVGVYFCMQALQTPRTFGGGTKVEIKR |  |  |  |  |  | no binding | no binding |  |  | 
5 | 10D10 (antibody, V domains shown, Parent antibody from XenoMouse; also called 10D10 antibody) VH: QVQLQESGPGLVKPSQTLSLTCTVSGGSIRRGGDYWSWIRQHPGKGLEWIGYIYYSGSTNYNPSLKSRATISVDTSKNQFSLKLSSVTAADTAVYYCARDYDILTGYSYYYYGMDVWGQGTTVTVSS VL: not shown | 120 |  |  |  |  |  |  |  |  | Mean IC50 (nM), cAMP antagonist assay [8]: 80.8 nM; n = 1 IC50 (nM), cAMP antagonist assay [8]: 118 nM; n = 2 IC50 (nM), cAMP antagonist assay [8]: 43.4 nM; Mean IC50 (nM, n = 3), cAMP antagonist assay [9]: 120 nM; Antagonist assay IC50 (nM), 2-AG [10]: 178 nM; Antagonist assay IC50 (nM), Anandamide [10]: 6040 nM; Antagonist assay IC50 (nM), CP 55,940 [10]: 120 nM; Inverse agonist assay IC50 [10]: 295 nM; IC50 (nM), antagonist assay [11]: 144 nM; IC50, nM (CP agonist) [12]: 121 nM; Kd [13]: 755 nM
6 | LIBC529593-1 (antibody, V domains shown, Fully human antibody from the new XenoMouse campaign) VH: QVQLQESGPGLVKPSQTLSLTCTVSGGSIRRGGDYWSWIRQHPGKGLEWIGHIYYSGSTNYNPSLRSRVRISVDTSKNQFSLKLSSVTAADTAVYYCARDYDILTGYSYYYYGLDVWGQGTTVTVSS VL: not shown | 6.4 | 422 | 495 | 1.1 | 1 |  |  |  |  | 
7 | LIBC524049-1 (antibody, IgG1, V domains shown) VH: QVQLQESGPGLVKPSQTLSLTCTVSGGSIRRGGDYWSWIRQHPGKGLEWIGHIYYTGSTAYNPSLKSRATISVNTYKNQFSLKLSSVTAADTAVYYCARDYDILTGYSYYYYGMDVWGQGTTVTVSS VL: not shown |  |  |  |  |  |  |  | 39.9 | 24.8 | binding result [14]: no binding; binding result [15]: no binding; 100 nM huCB1-SMALP binding (normalized to 10D10) [16]: 5.51 fold; Fold over mock [17]: 1 fold; Fold over mock [18]: 0.8 fold; relative binding to 0.2 nM huCB1-ND (relative to 10D10N35Y) [19]: 5.01 fold; specific huCB1 binding (CB1 ND/Empty ND ratio) [20]: 9.5 ratio
8 | LIBC529593-1 (antibody, V domains shown) VH: QVQLQESGPGLVKPSQTLSLTCTVSGGSIRRGGDYWSWIRQHPGKGLEWIGHIYYSGSTNYNPSLRSRVRISVDTSKNQFSLKLSSVTAADTAVYYCARDYDILTGYSYYYYGLDVWGQGTTVTVSS VL: not shown |  |  |  |  |  | no binding | no binding |  |  | 
9 | LIBC523969-1 (antibody, V domains shown) VH: QVQLQESGPGLVKPSQTLSLTCTVSGGSIRRGGDYWSWIRQHPGKGLEWIGHIYQTGQTKYNPNLKGRATISVNTYKNQFSLKLSSVTAADTAVYYCARDYDILTGYSYYYYGMDVWGQGTTVTVSS VL: DIVMTQSPLSLPVTPGEPASISCRSSQSLLSSTGANYLDWYLQKPGQSPQLLIYQGSNRASGVPDRFSGSGSGTDFTLKISRVEAEDVGVYYCRQAVGLPRTFGQGTKVEIKR |  |  |  |  |  |  |  | 46.8 | 27.2 | 100 nM huCB1-SMALP binding (normalized to 10D10) [16]: 5.69 fold; relative binding to 0.2 nM huCB1-ND (relative to 10D10N35Y) [19]: 4.53 fold; specific huCB1 binding (CB1 ND/Empty ND ratio) [20]: 12.8 ratio
10 | 10D10 (antibody, V domains shown, also called 10D10 antibody; 10D10 parent) VH: QVQLQESGPGLVKPSQTLSLTCTVSGGSIRRGGDYWSWIRQHPGKGLEWIGYIYYSGSTNYNPSLKSRATISVDTSKNQFSLKLSSVTAADTAVYYCARDYDILTGYSYYYYGMDVWGQGTTVTVSS VL: not shown |  |  |  |  |  |  |  | 0.431 | 1.48 | binding result [14]: no binding; binding result [15]: no binding

Source: patent US20250277029A1 (Amgen, published 2025)
